Target: human Toll-like receptor 5 (hTLR5) on HEK-Blue hTLR5 cells (human) (UniProt O60602)
UniProt O60602, sequence (O60602 21-858): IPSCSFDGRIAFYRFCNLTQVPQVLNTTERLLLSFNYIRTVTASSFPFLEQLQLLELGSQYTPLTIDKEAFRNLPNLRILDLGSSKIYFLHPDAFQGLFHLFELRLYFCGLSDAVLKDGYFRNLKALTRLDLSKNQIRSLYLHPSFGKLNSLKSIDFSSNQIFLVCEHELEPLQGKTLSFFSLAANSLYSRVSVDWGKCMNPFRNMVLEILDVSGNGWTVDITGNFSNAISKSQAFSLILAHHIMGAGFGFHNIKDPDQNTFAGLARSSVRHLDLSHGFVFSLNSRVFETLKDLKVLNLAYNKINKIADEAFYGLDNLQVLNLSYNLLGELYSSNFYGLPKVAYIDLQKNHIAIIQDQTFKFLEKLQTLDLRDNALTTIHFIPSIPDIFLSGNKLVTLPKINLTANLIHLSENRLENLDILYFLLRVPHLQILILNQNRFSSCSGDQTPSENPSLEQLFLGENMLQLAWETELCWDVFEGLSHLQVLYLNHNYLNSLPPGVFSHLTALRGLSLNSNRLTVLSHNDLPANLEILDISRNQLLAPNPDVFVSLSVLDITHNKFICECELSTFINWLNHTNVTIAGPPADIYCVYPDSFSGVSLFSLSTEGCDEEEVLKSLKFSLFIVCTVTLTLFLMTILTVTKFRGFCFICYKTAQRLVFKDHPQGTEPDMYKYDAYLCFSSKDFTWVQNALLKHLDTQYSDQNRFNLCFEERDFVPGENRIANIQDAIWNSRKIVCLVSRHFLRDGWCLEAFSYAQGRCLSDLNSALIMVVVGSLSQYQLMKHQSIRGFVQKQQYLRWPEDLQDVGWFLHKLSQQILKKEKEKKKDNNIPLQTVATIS

| Substance | EC50 of TLR5-dependent NF-κB activation in HEK-Blue hTLR5 cells (OD 620; 0.03719 nM to 76.16 nM protein) |
| --- | --- |
| D2D3 domain-depleted FlaB (FlaB^ΔD2D3) (natural protein) | 13.2 nM |
| deimmunized FlaB (dFlaB), FlaB lacking residues 175-193 (natural protein) | 9.01 nM |
| Vibrio vulnificus flagellin B (FlaB), wild type recombinant (natural protein) | 4.18 nM |
